This series can be described thus: soluble on expression in E. coli; label from the status in PepcDB or PDB records.
For the sequence “TLWPREVEGGQGKPSHGCRAASKARLEAKPANSPFPSHPSLAHITQFRMMVSLGHLAKGASLDDLIDSCIQSFDADGNLCRSNQLLQVMLTMHRIVISSAELLQKVITLYKDALAKNSPGLCLKICYFVRYWITEFWVMFKMDASLTDTMEEFQELVKAKGEELHCRLIDTTQINARDWSRKLTQRIKSNTSKKRKVSLLFDHLEPEELSEHLTYLEFKSFRRISFSDYQNYLVNSCVKENPTMERSIALCNGISQWVQLMVLSRPTPQLRAEVFIKFIQVAQKLHQLQNFNTLMAVIGGLCHSSISRLKETSSHVPHEINKVLGEMTELLSSSRNYDNYRRAYGECTDFKIPILGVHLKDLISLYEAMPDYLEDGKVNVHKLLALYNHISELVQLQEVAPPLEANKDLVHLLTLSLDLYYTEDEIYELSYAREPRNHRAPPLTPSKPPVVVDWASGVSPKPDPKTISKHVQRMVDSVFKNYDHDQDGYISQEEFEKIAASFPFSFCVMDKDREGLISRDEITAYFMRASSIYSKLGLGFPHNFQETTYLKPTFCDNCAGFLWGVIKQGYRCKDCGMNCHKQCKDLVVFECKKRAKNPVAPTENNTSVGPVSNLCSLGAKDLLHAPEEGPFTFPNGEAVEHGEESKDRTIMLMGVSSQKISLRLKRAVAHKATQTESQPWIGSEGPSGPFVLSSPRKTAQDTLYVLPSPTSPCPSPVLVRKRAFVKWENKDSLIKSKEELRHLRLPTYQELEQEINTLKADNDALKIQLKYAQKKIESLQLEKSNHVLAQMEQGDCS”, the “soluble on expression in E. coli” value is reported as “soluble”. Under “MNKDQSKIPQATAKRLPLYYRFLKNLHASGKQRVSSAELSDAVKVDSATIRRDFSYFGALGKKGYGYNVDYLLSFFRKTLDQDEMTDVILIGVGNLGTAFLHYNFTKNNNTKISMAFDINESKIGTEVGGVPVYNLDDLEQHVKDESVAILTVPAVAAQSITDRLVALGIKGILNFTPARLNVPEHIRIHHIDLAVELQSLVYFLKHYSVLEEIE” stands “soluble”.

With “MYLKRPIWSDGASATPENPSESETGEESDAASMVVEELVTSLNTQRLYRELTLSLRTGLRDACAEFSFLRIRGLRSLLKTLRTVADSDSIIRLFSHTQTISDLQLVPVLFQHSLKEAEDDKVTSLDHIFSVEPMKITSPSTDAEVAVALRVLEGCCLLHPQSTVLAHKHGAVRVMMNVLSTRGVLEQGACLDALISVLLDSSANQVDFGACNGIEEVAMLMRDKQADENLSIYTIKIAVNEDSFPFCLFWLRCGEFLLLLVGHVNGKDRSPIASVNEDIRRLLGEKSASLIWAASQFGSTGDPEQRITALHIQAGRVLESLDLY”, the “soluble on expression in E. coli” value is “soluble”. Under “MSLNEMEKRPEDTRVVVGMSGGVDSSVAALLLKEQGYDVIGIFMKNWDDTDENGFCTATEDYEDVIRVCNQIGIPYYAVNFEKQYYEKVFQYFLDEYKAGRTPNPDVLCNKEIKFKAFLEHALSLGADYLATGHYARVDRSGGKVRMLRGIDENKDQTYFLNQLTEDTLSKVMFPIGELQKSRVREIAKEAELATATKKDSTGICFIGERNFKTFLSQYLPAQPGDMMTMDGEVKGRHDGLMYYTIGQRHGLGIGGSGEPWFAVGKDLEKNILYVDQGFHNPLLYSDKITATNISWVRSDIMKGEEISCTAKFRYRQEDHKVTVRMTGEGEAEVIFDEQVRAVTPGQAVVFYDGEECLGGGTIDDVYKDGTKLWYVEGHHHHHH” stands “soluble”; under “MGSSHHHHHHSSGLVPRGSHMLESSGNRDIAQVVTENNKNYLVLYASQTGTAEDYAKKFSKELVAKFNLNVMCADVENYDFESLNDVPVIVSIFISTYGEGDFPDGAVNFEDFICNAEAGALSNLRYNMFGLGNSTYEFFNGAAKKAEKHLSAAGAIRLGKLGEADDGAGTTDEDYMAWKDSILEVLKDELGVEATGEESSIRQYELVVHTDIDAAKVYMGEMGRLKSYENQKPPFDAKNPFLAAVTTNRKLNQGTERHLMHLELDISDSKIRYESGDHVAVYPANDSALVNQLGKILGADLDVVMSLNNLDEESNKKHPFPCPTSYRTALTYYLDITNPPRTNVLYELAQYASEPSEQELLRKMASSSGEGKELYLSWVVEARRHILAILQDCPSLRPPIDHLCELLPRLQARYYSIASSSKVHPNSVHICAVVVEYETKAGRINKGVATNWLRAKEPAGENGGRALVPMFVRKSQFRLPFKATTPVIMVGPGTGVAPFIGFIQERAWLRQQGKEVGETLLYYGCRRSDEDYLYREELAQFHRDGALTQLNVAFSREQSHKVYVQHLLKQDREHLWKLIEGGAHIYVCGDARNMARDVQNTFYDIVAELGAMEHAQAVDYIKKLMTKGRYSLDVWS”, “soluble”.

On to “MPRQRRQGIVYDVREQGTARLIFDENRTKFDGVLETISGETMLVRGRVTSPTDLASTSATTDGSIVMDIDVVDGEEGSAFHVTGVKVLVDEHYAAIDSTAIKFEALDRLIGMKAAVEIQQHISPEIAYDSKEVFIGKMQIHLLTSHRPSPSSRRESVCAENNDIKILEVSDDFLA”, for which the “soluble on expression in E. coli” value is listed as “not soluble”.

Consider “MRDLKIVNGDLSFIDYGILLVEGDLELAQSVFMILSIRLEEFKLDTSVGLESDNMFGKNYNEDYLKQDITEAILDQEPRINSIENIEIVRNNRQLNITVEMLSTLGDEVEVVIRA”, for which the “soluble on expression in E. coli” value is reported as “not soluble”. Under “MFEELKTFVAVVEYKNFTKAGEYLNLSQPSVSKHIKNLENYFKVVLINRSIKQKTIFITESGQILYKRAKEILNLLNITYHDVSQVSDAITGHLKIGASLTIGEYILPNFLALFSKKYPDIDVEVFIKNTSIVSSHVKDYILDIGLIEGTCSSPSFIQEYFFEDKMVLALPYKSHLLKDFSFDKLQNQKWIVREDGSGTRDYLDMFLSVKEIIPKSMMVFGSNYAVKESVRNNLGITIVSNLVTSLPVLNNELSVIELGSSYNRHFSYIFPKDITLSKAATIFIEELKIFSNLNSI” stands “not soluble”; under “MGSDKIHHHHHHMIDPESLEALEAVVDAGSLSAAAGQLNKAVSAVGYHLRRLEEQIGVPLLDRSGYRLALTPEGKSVLAEGRPILERLRALGTFAERYHGGWEHQLRIVYDGALPAEVVIGAINALVEAGAPTHIELNVAYLGAVPFEFDRKQADVMIATAWEPRLDLIGHRLATLGFSLCCAAGHPLTMRTNVSLEELQRETELIIPGLAEDRSFDARHFRSRRILKVSDFNTKLIAIRRGLGFGWLPDYLASDLVRKGNLARVRLEGGNSYELQPVFALHRGAAPGRARQMLLDMLLLATWDTYVKPE”, “not soluble”; under “MAHRTFRLCRLRIRRLRDHPLRQDGMVDYSTTATTNTLYLLHTGHHVPPPPSHRNPPFSFRSFRPPIQPCSPNSHHVDNVIILASAIK”, “not soluble”. In the case of “MSNEQPNNPLHGLSLEKIVTRLVEHFGWNGLYERVRVNCFKKDPSIKSSLKFLRKTQWARDKVEALYIETFCLEHHHHHH”, the “soluble on expression in E. coli” value is “not soluble”. Turning to “MGSDKIHHHHHHMTTQSFIATKEHRRFAEFADAVRRQHTIGICYGHAGIGKTLSAKRYANWHKAENLIEQWGPRDDADYQIYAALARARTVFYTPAVLTSPKQIHAELEHISTRVSICVDQHLEKIGKKTGPHTRTGKHVELLIIDESERLNATALELLRDRYDRDNIALILIGMPGIEKWFSRYAQLYSRVGFAHEYRPLAQEELNFVLERRWHKLGQTLDPEDFTDAQAIAAVARITRGNFRLIDRLFTQIERVMKINELSTITDDVIEAARSTLVIGIS”, the “soluble on expression in E. coli” value was “not soluble”. On to “MGSDKIHHHHHHMNTTQELHVIFGTGPLAQAVMRELLARNKRVRMINRSGKADIPSSVEIIASDAYNSENTRAVTTGATVVYQCAQPAYTQWPELFPSLQASIVEGVAANGAKLVVGDNLYMYGPVNGVLREDMPNAATTRKGRVRGQMTEALLDAHRRGIVRVAIGRASDFYGPLVLDSVMGDRIFPSVLTGKPASAIGEIDLPHTYTFIDDFGKALVVLGEEDKALGQIWHVPNAETITTRQFITIAFEEAGYPPKISKMGKFMMRLGGIFIPEARETVEMMYEFDEPFVVNHDKYVQAFGNHATPLREAIRHTLKWYSEHLKTLKT”, for which the “soluble on expression in E. coli” value is given as “not soluble”.

Take “MFGKGENLAATDYQMVRHPDIHQAQCLYQTFRDKAVCLTGGDFTGRVIVCQHHGCGIVIQGAFNHFPGMDFRAVDGAGEEGFTGNQLILVIQIQHPELFTLQSRHVQNQPFPCRTGGGEGHAGFMKMAVQGFQGPQNETALAGRHFSGQKGNLLHCSCPLSVNNAHNGAAFRMLQGVIPQTVIMNRHGITLRTAGVMTVRHQTGGNAGGFRAHFSAVTVHDVKQHPCFVIIVIRFGCHKCATVVQGVQIPDTTAVVFIQTVHPAEDPGLQGHPLWNEAKMLRPEADALFIRDYGGNQLLQASLRCTGRRGGVLRQCFHV”: the “soluble on expression in E. coli” value is given as “not soluble”. In the case of “MGSDKIHHHHHHPEQIEKYPSIYPDYIGVTIPATIAPMNFSYTDTSYERIDVIVKGHQGKEVHINAKHVNFPEKEWKQLLNSNQGDSLLFTVSIKQKGKWSTYKPFPMYISPHPIDYGLVYRKIAPGYEVYSRMGIYERDLSSHKERPLVENTLVKGMCVNCHAFNRTDPSHFSLHIRGTHGATFMRTGNKDEYLNTKTDQTIAACVYPYWHPGGEYIAYSTNNTRQSFHTVKDERVEVLDLESDVVVYHPADHHLLLCDSLQKKDRFETFPAFSPDGRTLYFCSAEAKKIPEEYKEIRYNLCSIDFDPSTGTFGSRIDTLVNAEALGKSVSFPRPSYDGKYIMFTLSDYGNFSIWHKEANLWLLDLTSGDLRELSEVNSDDTESFHNWSSNSRWFVFSSRRGDGLYTRLYLASMDENGKISKPFLLPQEDPETYYDRSVYSYNVPDFVNAPILLDTKVFEKRITSKERIQVQVGN”, the “soluble on expression in E. coli” value is “not soluble”. To “MAEEKVKDEAMQIMGMFQILPRLVVFDLDYTLWPFYCECRSKREMPSMYPQAKGILSALKEKGIEMAIASRSPTSDIANTFLDKLNIKPMFVAKVSKMGVTSILVGDGVTLGAFRQGLTEFTQNHNSIEKNKQVWRDKYSGKPTSSETDKD” belongs “soluble”; to “MAEAPPVSGTFKFNTDAAEFIPQERKTSGLNCGTQRRLDSSRIGRRNYSSSPPCHLPRHIPYEDISAVHQHSYASGSKPKSPQGFFQSSNKSLKNHGLQNQPWQKARNEKHQNRNKKAQGLSEQTSDTSSLESVARSESGTNPREHSPSESEKEVVIADPRGAKPKKAAQLTYNYGRGPKAKGRLRSEWGNRMSPKSEDENTRPVAISHTDSSDASCRKPVVDPCVCRRNEQRRYPQKRPPWEVEGARPRPGRNPPKQESQRHINAGPKTNMSPIPKDNLRERPTKSACDTGNLAVVSKSSRRVNQEKTAVRRQDPQVLSPFPRGKQNHMLKNVETHTGSLIEQLTTEKYECMVCCELVQVTAPVWSCQSCFHVFHLNCIKKWARSPASHADGQSGWRCPACQNVSAHVPNTYTCFCGKVKNPEWSRNEIPHSCGEVCRKKQPGQDCPHSCNLLCHPGPCPPCPAFTTKTCECGRTRHTVRCGQPVSVHCSNACENILNCGQHHCAELCHGGQCQPCRIILNQVCYCGSTSRDVLCGTDVGKSDGFGDFSCLKICGKDLKCGSHTCSQVCHPQPCQPCPRLPHLVRYCPCGQTPLSQLLEHGSNARKTCMDPVPSCGKVCGKPLACGSSDFIHTCEKLCHEGDCGPCSRTSVISCRCSFRTKELPCTSLKSEDATFMCDKRCNKKRLCGRHKCNEICCVDKEHKCPLICGRKLRCGLHRCEEPCHRGNCQTCWQASFDELTCHCGASVIYPPVPCGTRPPECTQTCARIHECDHPVYHSCHSEEKCPPCTFLTQKWCMGKHEELTIKKLWTFKETLDF”, “soluble”. To “MVKATNVDLSLEDIISKTRKTTGSIQKKSFGGARRGNTRPTGLPRRSGGSGGWKDLDAVQNHGISSRGNDSKVIRVNISNLAPTVISSDLEELFGDYRLSSVSVNFNEHGDSLGTGDISLTKRDAERLVQKFSGVALDGKIMKFAVIDSSNMAGRVDFGNRSRSSPGRSSRGFQSGPRRNNGKPEDFLRDGVHAGDIKRGGAGRGGFRKGGRGGARDAKPKKTEAELDAELEAYMAKRNA” belongs “soluble”.

The record behind these values is the DeepSol protein solubility set.
